What was measured:
[1] = test system: Lactococcus lactis alcohol dehydrogenase Ll_AdhA, SEQ ID NO: 67; settings: NADH as cofactor; cited from earlier work
[2] = substrate: NC(=O)C1=CN([C@@H]2O[C@H](COP(=O)(O)OP(=O)(O)OC[C@H]3O[C@@H](n4cnc5c(N)ncnc54)[C@H](O)[C@@H]3O)[C@@H](O)[C@H]2O)C=CC1; test: KARI cuvette assay, purified Ec_IlvC^B8-his6; type: biochemical, E. coli
Procedure: (§1) KARI cuvette assay: KARI activity was assayed kinetically by monitoring the decrease in NAD(P)H concentration by measuring the absorbance at 340 nm. A reaction buffer was prepared containing 250 mM potassium phosphate pH 7, 1 mM DTT and 10 mM MgCl2. Cell pellets were resuspended (0.25 g wet weight/mL buffer) in 250 mM potassium phosphate (KPi) buffer containing 1 mM DTT and 10 mM MgCl2. The resuspended cells were lysed by sonication for 1 min with a 50% duty cycle and pelleted at 11000×g and 4° C. for 15 min. A reaction mixture consisting of 910 μl reaction buffer, 50 μl acetolactate, and 20 μl lysate was prepared in a cuvette. The reaction was initiated by addition of 20 μL of 10 mM NAD(P)H. A substrate free control was conducted using reaction buffer without the addition of acetolactate.
(§2) Purification of KARI: Cell pellets used for purification were resuspended in purification buffer A (20 mM Tris, 20 mM imidazol, 100 mM NaCl, 10 mM MgCl2, pH 7.4). KARI was purified by IMAC (Immobilized metal affinity chromatography) over a 1 ml Histrap High Performance (histrap HP) column pre-charged with Nickel (GE Healthcare) using an Akta FPLC system (GE Healthcare). The column was equilibrated with four column volumes (cv) of buffer A. After injecting the crude extract, the column was washed with buffer A for 2 cv, followed by a wash step with a mixture of 10% elution buffer B (20 mM Tris, 300 mM imidazol, 100 mM NaCl, 10 mM MgCl2, pH 7.4) for 5 cv. KARI variants were eluted at 40% buffer B and stored at 4° C.
(§3) As a next step, the gene encoding variant Ec_llvC^Q110V-his6 (SEQ ID NO: 23) was used as template to generate individual combinations of the mutation Q110V with other mutations: R68L, A71T, A71S, R76G, R76S, R76T, S78D, and R76D. After screening the variants as described above, the most promising ones were expressed, purified, and characterized. Table 29 lists the KM values in μM on NADPH and NADH for Ec_llvC^his6, Ec_llvC^Q110V-his6, and variants of Ec_llvC^Q110V-his6. […] The A71S mutation was introduced into Ec_llvC^B8-his6 resulting in a variant Ec_llvC^B8A71S-his6, which yielded 44% catalytic efficiency on NADH compared to the catalytic efficiency of wild-type KARI on NADPH (FIG. 19 and Table 30).

[3] = substrate: NC(=O)C1=CN([C@@H]2O[C@H](COP(=O)(O)OP(=O)(O)OC[C@H]3O[C@@H](n4cnc5c(N)ncnc54)[C@H](OP(=O)(O)O)[C@@H]3O)[C@@H](O)[C@H]2O)C=CC1; test: KARI cuvette assay, purified Ec_IlvC^B8-his6; type: biochemical, E. coli; settings: other: purified; acetolactate as substrate
Procedure: as §1, §2, §3

[4] = substrate: NC(=O)C1=CN([C@@H]2O[C@H](COP(=O)(O)OP(=O)(O)OC[C@H]3O[C@@H](n4cnc5c(N)ncnc54)[C@H](O)[C@@H]3O)[C@@H](O)[C@H]2O)C=CC1; test: KARI assay, purified Ec_IlvC^2H10-his6; type: biochemical, E. coli; settings: other: purified; acetolactate as substrate
Procedure: as §1, §2
(§4) Only 20% of the enzymes of the recombination library were active on NADH. After screening 1,000 clones using the NADH depletion assay at 340 nm, 26 KARI variants were selected for a rescreen by the high-throughput assay described in Example 14 and eight thereof were expressed in 25 ml LBamp medium in shake flasks according to the protocol for cell growth and protein expression in shake flasks as described in Example 14, purified according to the protocol for purification of KARI enzymes as described in Example 14, and NAD(P)H depletion at 340 nm was measured again. […] The KM values of variants Ec_llvC^2H10-his6 and Ec_llvC^6E6-his6 were measured and the catalytic efficiencies were calculated.

[5] = substrate: NC(=O)C1=CN([C@@H]2O[C@H](COP(=O)(O)OP(=O)(O)OC[C@H]3O[C@@H](n4cnc5c(N)ncnc54)[C@H](OP(=O)(O)O)[C@@H]3O)[C@@H](O)[C@H]2O)C=CC1; test: KARI assay, purified Ec_IlvC^2H10-his6; type: biochemical, E. coli; settings: other: purified; acetolactate as substrate
Procedure: as §1, §2, §4

[6] = substrate: NC(=O)C1=CN([C@@H]2O[C@H](COP(=O)(O)OP(=O)(O)OC[C@H]3O[C@@H](n4cnc5c(N)ncnc54)[C@H](O)[C@@H]3O)[C@@H](O)[C@H]2O)C=CC1; test: KARI assay, purified Ec_IlvC^6E6-his6; type: biochemical, E. coli; settings: 30.0 °C
Procedure: as §1, §2, §4
(§5) Improved variants were expressed and purified from GEVO1186. 20 mL SC-URA medium overnight cultures were grown at 30° C. and 250 rpm in 250 mL flasks and were then used to inoculate 96 well deep well plates on the next morning. 50 μL of the overnight cultures were transferred into 600 μL SC-URA medium per well. The plates were then grown at 30° C. and 250 rpm in a humidified plate shaker for 8 h. In order to the harvest, the cultures were transferred into 50 mL Falcon tubes and then spun down at 4° C. and 5,000 rpm for 10 min. The pellets were frozen until they were processed and purified as described in Example 14 above.

[7] = substrate: NC(=O)C1=CN([C@@H]2O[C@H](COP(=O)(O)OP(=O)(O)OC[C@H]3O[C@@H](n4cnc5c(N)ncnc54)[C@H](OP(=O)(O)O)[C@@H]3O)[C@@H](O)[C@H]2O)C=CC1; test: KARI assay, purified Ec_IlvC^6E6-his6; type: biochemical, E. coli; settings: other: Example 15, expressed in E. coli BL21(DE3), purified; 30.0 °C
Procedure: as §1, §2, §4, §5

[8] = substrate: NC(=O)C1=CN([C@@H]2O[C@H](COP(=O)(O)OP(=O)(O)OC[C@H]3O[C@@H](n4cnc5c(N)ncnc54)[C@H](O)[C@@H]3O)[C@@H](O)[C@H]2O)C=CC1; test: KARI cuvette assay, purified Ec_IlvC^his6 (parent / wild type); type: biochemical, E. coli
Procedure: as §1, §2
(§6) The three best variants Ec_llvC^S78D-his6, Ec_llvC^Q110A-his6, and Ec_llvC^Q110V-his6 were characterized according to their specific activities [U/mg], kcat values [s^−1], catalytic efficiencies [M^−1*s^−1] (FIG. 18), and KM values (Table 27).
as §4

[9] = substrate: NC(=O)C1=CN([C@@H]2O[C@H](COP(=O)(O)OP(=O)(O)OC[C@H]3O[C@@H](n4cnc5c(N)ncnc54)[C@H](OP(=O)(O)O)[C@@H]3O)[C@@H](O)[C@H]2O)C=CC1; test: as above; type: biochemical, E. coli; settings: other: purified; acetolactate as substrate
Procedure: as §1, §2, §6, §4

[10] = other: purified, acetolactate as substrate
[11] = other: Example 15, expressed in E. coli BL21(DE3), purified
[12] = other: Example 16, expressed in yeast GEVO1186, purified

CC=O [Acetaldehyde]
Km [1]: 500 µM | kcat [1]: 10 s⁻¹

CC(C)C=O [isobutyraldehyde]
Km [1]: 9100 µM | kcat [1]: 6.6 s⁻¹

B1: E. coli KARI Ec_IlvC variant Ec_IlvC^B8-his6 (Q110V, S78D), SEQ ID NO: 27 (Escherichia coli K-12; Q110V/S78D) (protein)
chain: MANYFNTLNLRQQLAQLGKCRFMGRDEFADGASYLQGKKVVIVGCGAQGLNQGLNMRDSGLDISYALRKEAIAEKRADWRKATENGFKVGTYEELIPQADLVINLTPDKVHSDVVRTVQPLMKDGAALGYSHGFNIVEVGEQIRKDITVVMVAPKCPGTEVREEYKRGFGVPTLIAVHPENDPKGEGMAIAKAWAAATGGHRAGVLESSFVAEVKSDLMGEQTILCGMLQAGSLLCFDKLVEEGTDPAYAEKLIQFGWETITEALKQGGITLMMDRLSNPAKLRAYALSEQLKEIMAPLFQKHMDDIISGEFSSGMMADWANDDKKLLTWREETGKTAFETAPQYEGKIGEQEYFDKGVLMIAMVKAGVELAFETMVDSGIIEESAYYESLHELPLIANTIARKRLYEMNVVISDTAEYGNYLFSYACVPLLKPFMAELQPGDLGKAIPEGAVDNGQLRDVNEAIRSHAIEQVGKKLRGYMTDMKRIAVAGLEHHHHHH
Km [2, 10]: 65 µM | kcat [2, 10]: 2.0 s⁻¹ | kcat/Km [2, 10]: 31,775 M^−1 * s^−1 | kcat/Km ([2]; with NADH): 34200 M⁻¹ s⁻¹ | Km [3]: 65 µM | kcat [3]: 2.2 s⁻¹ | kcat/Km [3]: 34,188 M^−1 * s^−1

B2: E. coli KARI Ec_IlvC variant Ec_IlvC^2H10-his6 (A71S, R76D, S78D, Q110A), SEQ ID NO: 31 (Escherichia coli K-12; A71S/Q110A/R76D/S78D) (protein)
chain: MANYFNTLNLRQQLAQLGKCRFMGRDEFADGASYLQGKKVVIVGCGAQGLNQGLNMRDSGLDISYALRKESIAEKDADWRKATENGFKVGTYEELIPQADLVINLTPDKAHSDVVRTVQPLMKDGAALGYSHGFNIVEVGEQIRKDITVVMVAPKCPGTEVREEYKRGFGVPTLIAVHPENDPKGEGMAIAKAWAAATGGHRAGVLESSFVAEVKSDLMGEQTILCGMLQAGSLLCFDKLVEEGTDPAYAEKLIQFGWETITEALKQGGITLMMDRLSNPAKLRAYALSEQLKEIMAPLFQKHMDDIISGEFSSGMMADWANDDKKLLTWREETGKTAFETAPQYEGKIGEQEYFDKGVLMIAMVKAGVELAFETMVDSGIIEESAYYESLHELPLIANTIARKRLYEMNVVISDTAEYGNYLFSYACVPLLKPFMAELQPGDLGKAIPEGAVDNGQLRDVNEAIRSHAIEQVGKKLRGYMTDMKRIAVAGLEHHHHHH
notes: T37 values cited for the gene on pGV1976
Km [4]: 44.2 µM | kcat [4]: 2.6 s⁻¹ | kcat/Km [4]: 60322 M⁻¹ s⁻¹ | Km [5]: 568 µM | kcat [5]: 0.61 s⁻¹ | kcat/Km [5]: 1,078 M^−1 * s^−1

B3: E. coli KARI Ec_IlvC variant Ec_IlvC^6E6-his6 (A71S, R76D, S78D, Q110V), SEQ ID NO: 34 (Escherichia coli K-12; A71S/Q110V/R76D/S78D) (protein)
chain: MANYFNTLNLRQQLAQLGKCRFMGRDEFADGASYLQGKKVVIVGCGAQGLNQGLNMRDSGLDISYALRKESIAEKDADWRKATENGFKVGTYEELIPQADLVINLTPDKVHSDVVRTVQPLMKDGAALGYSHGFNIVEVGEQIRKDITVVMVAPKCPGTEVREEYKRGFGVPTLIAVHPENDPKGEGMAIAKAWAAATGGHRAGVLESSFVAEVKSDLMGEQTILCGMLQAGSLLCFDKLVEEGTDPAYAEKLIQFGWETITEALKQGGITLMMDRLSNPAKLRAYALSEQLKEIMAPLFQKHMDDIISGEFSSGMMADWANDDKKLLTWREETGKTAFETAPQYEGKIGEQEYFDKGVLMIAMVKAGVELAFETMVDSGIIEESAYYESLHELPLIANTIARKRLYEMNVVISDTAEYGNYLFSYACVPLLKPFMAELQPGDLGKAIPEGAVDNGQLRDVNEAIRSHAIEQVGKKLRGYMTDMKRIAVAGLEHHHHHH
notes: T37 values cited for the gene on pGV1975
Km [6, 11]: 31.6 µM | kcat [6, 11]: 2.3 s⁻¹ | kcat/Km [6, 11]: 74045 M⁻¹ s⁻¹ | Km [6, 12]: 39 µM | kcat [6, 12]: 2.4 s⁻¹ | kcat/Km [6, 12]: 63,000 M^−1 * S^−1 | Km [7]: 653 µM | kcat [7]: 0.2 s⁻¹ | kcat/Km [7]: 386 M⁻¹ s⁻¹

B4: Escherichia coli KARI (ketol-acid reductoisomerase) Ec_IlvC^his6, wild type IlvC (SEQ ID NO: 13) with his6-tag, SEQ ID NO: 15 (Escherichia coli K-12) (protein)
chain: MANYFNTLNLRQQLAQLGKCRFMGRDEFADGASYLQGKKVVIVGCGAQGLNQGLNMRDSGLDISYALRKEAIAEKRASWRKATENGFKVGTYEELIPQADLVINLTPDKQHSDVVRTVQPLMKDGAALGYSHGFNIVEVGEQIRKDITVVMVAPKCPGTEVREEYKRGFGVPTLIAVHPENDPKGEGMAIAKAWAAATGGHRAGVLESSFVAEVKSDLMGEQTILCGMLQAGSLLCFDKLVEEGTDPAYAEKLIQFGWETITEALKQGGITLMMDRLSNPAKLRAYALSEQLKEIMAPLFQKHMDDIISGEFSSGMMADWANDDKKLLTWREETGKTAFETAPQYEGKIGEQEYFDKGVLMIAMVKAGVELAFETMVDSGIIEESAYYESLHELPLIANTIARKRLYEMNVVISDTAEYGNYLFSYACVPLLKPFMAELQPGDLGKAIPEGAVDNGQLRDVNEAIRSHAIEQVGKKLRGYMTDMKRIAVAGLEHHHHHH
Km [8, 10]: 1,075 μM | kcat [8, 10]: 1.0 s⁻¹ | kcat/Km [8, 10]: 1,000 M^−1 * s^−1 | kcat/Km ([8]; with NADH): 87300 M⁻¹ s⁻¹ | Km [9]: 41 µM | kcat [9]: 3.6 s⁻¹ | kcat/Km [9]: 87300 M⁻¹ s⁻¹
